{
  "source": "patent US20080014172A1",
  "molecular_target": "TNFα (R&D Systems cat# 210-TA) (UniProt P01375)",
  "sequence (P01375 77-233 limits assumed)": "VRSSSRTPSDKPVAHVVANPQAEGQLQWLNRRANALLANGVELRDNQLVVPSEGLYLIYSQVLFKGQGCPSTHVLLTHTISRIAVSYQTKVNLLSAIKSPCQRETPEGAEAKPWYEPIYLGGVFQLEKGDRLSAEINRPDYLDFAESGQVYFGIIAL",
  "assay": "cell-based or functional assay",
  "data": [
    {"substance": "TNFα binding protein (TBP)", "values": [
      {"measurement": "IC50 on TNFα-induced binding of Fibronectin-coated beads to BEND cells", "result": 0.769, "unit": "µg/mL"}
    ]}
  ]
}
